Measurements from FireProtDB (doi:10.1021/bi982828s).
Several values for one entry are separate records, joined by “and”; a condition that tells them apart may be missing. Equal entries are not always repeated.

Details: Arachis hypogaea, Thermal, DSC, Sodium phosphate 0.05 M, NaCl 0.15 M, transition: 3, reversible: yes, whole UniProt chain shown

B1: Galactose-binding lectin wild type, P02872 (protein)
chain: MKPFCVFLTFFLLLAASSKKVDSAETVSFNFNSFSEGNPAINFQGDVTVLSNGNIQLTNLNKVNSVGRVLYAMPVRIWSSATGNVASFLTSFSFEMKDIKDYDPADGIIFFIAPEDTQIPAGSIGGGTLGVSDTKGAGHFVGVEFDTYSNSEYNDPPTDHVGIDVNSVDSVKTVPWNSVSGAVVKVTVIYDSSTKTLSVAVTNDNGDITTIAQVVDLKAKLPERVKFGFSASGSLGGRQIHLIRSWSFTSTLITTTRRSIDNNEKKIMNMASA
pH 5.5
  Tm: 56.9 °C and 61.2 °C
  unfolding enthalpy (calorimetric): 212 kcal/mol and 113 kcal/mol
pH 6
  Tm: 57.5 °C
  unfolding enthalpy (calorimetric): 218 kcal/mol
pH 6.5
  Tm: 58 °C and 62.5 °C
  unfolding enthalpy (calorimetric): 225 kcal/mol and 121 kcal/mol
pH 7
  Tm: 58.5 °C
  unfolding enthalpy (calorimetric): 231 kcal/mol
pH 7.4
  unfolding enthalpy (van 't Hoff): 75.1 kcal/mol and 149 kcal/mol
pH 7.8
  Tm: 60.1 °C and 64.4 °C
  unfolding enthalpy (calorimetric): 245 kcal/mol and 132 kcal/mol
pH 8.2
  Tm: 61.2 °C and 65 °C
  unfolding enthalpy (calorimetric): 251 kcal/mol and 135 kcal/mol
